Target: CD3 on human peripheral blood T cells (human) (UniProt P07766)
Experiment: cell-based or functional assay

| fold expansion of human T cells at day 13, 5 ug anti-CD3 on APC-MS (1:1 with anti-CD28) | fold expansion of human T cells at day 13, 1 ug anti-CD3 on APC-MS (1:1 with anti-CD28) | fold expansion of human T cells at day 13, 0.5 ug anti-CD3 on APC-MS (1:1 with anti-CD28) | Substance |
| --- | --- | --- | --- |
| 600 to 800 fold | – | – | UCHT1, monoclonal antibody recognizing a 20 kDa subunit of the TCR complex within CD3e |
| 600 to 800 fold | 300 to 400 fold | – | HIT3a, antibody recognizing 17-19 kD epsilon-chain of CD3 within the CD3 antigen/T cell antigen receptor (TCR) complex |
| 600 to 800 fold | 300 to 400 fold | 600 to 700 fold | muromonab (OKT3), anti-CD3 antibody |
